Experiments:
[1] = target: cell surface IgG (sIgG) of the sIgG+ B-cell line SU-DHL-4 (human (endogenous in SU-DHL-4))
[2] = target: cell surface IgG (sIgG) of the sIgG+ B-cell line SU-DHL-4 (human (endogenous in SU-DHL-4)); remark: listed apart in the source

In the case of “IgAimG (SpA toxin 2): diphtheria toxin without its receptor binding domain, GGGS linker, SpA ZZ domain”, the viability of the sIgG+ B-cell line SU-DHL-4 after 3 days with the toxin (luminescent cell viability assay); toxic from 0.0001 μg/ml (% of cells killed) [1] was 99 and the viability of SU-DHL-4 after 3 days with 10 to 100 μg/ml IgAimG in the presence of human serum (luminescent cell viability assay) (% of cells killed) [2] was over 99.
